These results are taken from patent US20220324974A1 (SORRENTO THERAPEUTICS, published 2022).

In assay [1] the target is T1, BCMA expressed on MM1.R myeloma cells (UniProt Q02223 1-184).
T1 sequence (looked up): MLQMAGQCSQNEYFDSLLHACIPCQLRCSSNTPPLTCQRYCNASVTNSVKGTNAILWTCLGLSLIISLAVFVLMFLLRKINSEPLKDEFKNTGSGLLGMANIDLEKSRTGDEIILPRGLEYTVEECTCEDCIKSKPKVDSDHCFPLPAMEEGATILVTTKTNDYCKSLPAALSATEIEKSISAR
As to the kind of experiment: cell-based or functional assay.

For assay [2], the target named is T2, BCMA target antigen (Acro Biosystems catalog # BCA-H522g) (UniProt Q02223 1-54).
T2 construct: range 1-54; Bought protein; also called BMCA target antigen; BCMA antigen
T2 sequence (looked up): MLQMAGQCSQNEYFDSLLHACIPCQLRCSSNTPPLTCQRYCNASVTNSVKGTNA
Briefly: SPR Biacore, antibody captured by anti-Fc, antigen as analyte, 1:1 model. On the technique in general: Surface plasmon resonance follows binding to a sensor surface in real time, without labels.

Assay [3] concerns the target T3, CD3 antigen on primary human T cells (human, UniProt P07766 23-207; P04234 22-171; P09693 23-182).
T3 construct: CD3 is a multi-chain complex; also called CD3-expressing T cells; CD3-expressing CD38-minus T cells
As to the kind of experiment: flow cytometry on freshly isolated primary human T cells, anti-human Fc-APC secondary, GeoMean RL1-H of singlets. For orientation: A flow cytometer gives signals particle by particle.

Assay [4] has as its target T3, CD3 antigen on primary human T cells. The assay is described as above. The source holds these as a separate data set.
Assay [5] has the same target. As to the kind of experiment: flow cytometry on CD38-minus primary human T cells, anti-human Fc-APC secondary, GeoMean RL1-H of singlets.
Assay [6] deals with T4, CD38 expressed on human tumor cell lines (RPMI8226, MM1.R and other CD38(+) lines) (human, UniProt P28907 1-300). Briefly: cell-based or functional assay.
The target in assay [7] is T4, CD38 expressed on human tumor cell …. As to the kind of experiment: cell-based or functional assay. The source holds these as a separate data set.
Assay [8] deals with T3, CD3 antigen on primary human T cells. As to the kind of experiment: flow cytometry on CD38-minus primary human T cells.

B1: Kv4.33 BCMA/CD3 three-chain non-tandem bispecific antibody (bispecific antibody)
chain 1: EVQLVESGGGLVKPGGSLRLSCAASGFTSSTAWMSWVRQAPGKGLEWVGRIKSKSDGGTTDYAAPVKGRFTISRDDSKNTLFLQMNSLKTEDTAVYYCAKGGGTYGYWGQGTTVTVSSASTKGPSVFPLAPSSKSTSGGTAALGCLVKDYFPEPVTVSWNSGALTSGVHTFPAVLQSSGLYSLSSVVTVPSSSLGTQTYICNVNHKPSNTKVDKRVEPKSSDKTHTCPPCPAPEAAGGPSVFLFPPKPKDTLMISRTPEVTCVVVDVSHEDPEVKFNWYVDGVEVHNAKTKPREEQYNSTYRVVSVLTVLHQDWLNGKEYKCKVSNKALPAPIEKTISKAKGQPREPQVYTLPPSREEMTKNQVSLSCAVKGFYPSDIAVEWESNGQPENNYKTTPPVLDSDGSFFLVSKLTVDKSRWQQGNVFSCSVMHEALHNHYTQKSLSLSPGKGSGGSSGGGSGGGGSQVQLVQSGAEVKKPGASVKVSCKASGYTFISYTMHWVRQAPGQGLEWMGYINPRSGYTHYNQKLKDKATLTADKSASTAYMELSSLRSEDTAVYYCARSAYYDYDGFAYWGQGTLVTVSSASTKGPSVFPLAPSSKSTSGGTAALGCLVKDYFPEPVTVSWNSGALTSGVHTFPAVLQSSGLYSLSSVVTVPSSSLGTQTYICNVNHKPSNTKVDKRVEPKSC
chain 2: SYVLTQPASVSGSPGQSVTISCTGTSSAHGGHYYVSWYQQHPGKAPKLMIYDVSNRPSGVSNRFSGSKSGNTASLTISGLQAEDEADYYCGSYTSSGSYVFGTGTKLTVLGQPKAAPSVTLFPPSSEELQANKATLVCLISDFYPGAVTVAWKADSSPVKAGVETTTPSKQSNNKYAASSYLSLTPEQWKSHRSYSCQVTHEGSTVEKTVAPTESSGGSGGDKTHTCPPCPAPEAAGGPSVFLFPPKPKDTLMISRTPEVTCVVVDVSHEDPEVKFNWYVDGVEVHNAKTKPREEQYNSTYRVVSVLTVLHQDWLNGKEYKCKVSNKALPAPIEKTISKAKGQPREPQVYTLPPSREEMTKNQVSLWCLVKGFYPSDIAVEWESNGQPENNYKTTPPVLDSDGSFFLYSKLTVDKSRWQQGNVFSCSVMHEALHNHYTQKSLSLSPGK
chain 3: DIQMTQSPSSLSASVGDRVTITCSASSSVSYMNWYQQKPGKAPKRLIYDTSKLASGVPSRFSGSGSGTDFTLTISSLQPEDFATYYCQQWSSNPPTFGGGTKVEIKRTVAAPSVFIFPPSDEQLKSGTASVVCLLNNFYPREAKVQWKVDNALQSGNSQESVTEQDSKDSTYSLSSTLTLSKADYEKHKVYACEVTHQGLSSPVTKSFNRGEC
notes: also called Kv4.33 (3XGS) BCMA/CD3
One may read the Kd as the concentration at which binding is half-saturated. Higher therefore signals weaker binding. Broadly, the koff is a measure of how fast the partners let go of each other. Higher therefore signals fast dissociation. As usually defined, the kon is the rate constant with which the complex forms. Higher therefore signals faster complex formation. A word on the EC50 (read off the curve): it is the midpoint of the concentration-response curve. A higher EC50 (read off the curve) goes with a need for much substance. On to B1, for which, in assay [1], the “IC50 pM, TAA-dependent cytotoxicity (MM1.R target cells by the text)” value was found to be 134 pM. Further, in assay [2], the Kd was found to be 47.7 nM, the koff was determined as 0.0364 s⁻¹ and the on-rate constant (kon) turned out to be 762000 M⁻¹ s⁻¹. The “EC50 (read off the curve)” value in assay [3] is ~2 µg/mL. In assay [4], the concentration for a half-maximal effect (EC50 (read off the curve)) was ~2 µg/mL.

B2: Kv4.33 (4XGS) CD38/CD3 three-chain non-tandem bispecific antibody (bispecific antibody)
heavy: QVQLVESGGGLVKPGGSLRLSCAASGFTFSDDYMSWIRQAPGKGLEWVASVSNGRPTTYYADSVRGRFTISRDNAKNSLYLQMNSLRAEDTAVYYCAREGWSGEFTDWGQGTLVTVSSASTKGPSVFPLAPSSKSTSGGTAALGCLVKDYFPEPVTVSWNSGALTSGVHTFPAVLQSSGLYSLSSVVTVPSSSLGTQTYICNVNHKPSNTKVDKRVEPKSSDKTHTCPPCPAPEAAGGPSVFLFPPKPKDTLMISRTPEVTCVVVDVSHEDPEVKFNWYVDGVEVHNAKTKPREEQYNSTYRVVSVLTVLHQDWLNGKEYKCKVSNKALPAPIEKTISKAKGQPREPQVYTLPPSREEMTKNQVSLSCAVKGFYPSDIAVEWESNGQPENNYKTTPPVLDSDGSFFLVSKLTVDKSRWQQGNVFSCSVMHEALHNHYTQKSLSLSPGKGGSGSGSGGSSGGGSGGGGSQVQLVQSGAEVKKPGASVKVSCKASGYTFISYTMHWVRQAPGQGLEWMGYINPRSGYTHYNQKLKDKATLTADKSASTAYMELSSLRSEDTAVYYCARSAYYDYDGFAYWGQGTLVTVSSASTKGPSVFPLAPSSKSTSGGTAALGCLVKDYFPEPVTVSWNSGALTSGVHTFPAVLQSSGLYSLSSVVTVPSSSLGTQTYICNVNHKPSNTKVDKRVEPKSC
light 1: not shown
light 2: DIQMTQSPSSLSASVGDRVTITCSASSSVSYMNWYQQKPGKAPKRLIYDTSKLASGVPSRFSGSGSGTDFTLTISSLQPEDFATYYCQQWSSNPPTFGGGTKVEIKRTVAAPSVFIFPPSDEQLKSGTASVVCLLNNFYPREAKVQWKVDNALQSGNSQESVTEQDSKDSTYSLSSTLTLSKADYEKHKVYACEVTHQGLSSPVTKSFNRGEC
Consider B2, for which the “EC50 (read off the curve)” value in assay [5] is ~2 µg/mL.

B3: Kv5.1 CD38/CD3 three-chain in-tandem bispecific antibody (bispecific antibody)
chain 1: QVQLVESGGGLVKPGGSLRLSCAASGFTFSDDYMSWIRQAPGKGLEWVASVSNGRPTTYYADSVRGRFTISRDNAKNSLYLQMNSLRAEDTAVYYCAREGWSGEFTDWGQGTLVTVSSASTKGPSVFPLAPSSKSTSGGTAALGCLVKDYFPEPVTVSWNSGALTSGVHTFPAVLQSSGLYSLSSVVTVPSSSLGTQTYICNVNHKPSNTKVDKRVEPKSCGGSGSGSGGSSGGGSGGGGSQVQLVQSGAEVKKPGASVKVSCKASGYTFISYTMHWVRQAPGQGLEWMGYINPRSGYTHYNQKLKDKATLTADKSASTAYMELSSLRSEDTAVYYCARSAYYDYDGFAYWGQGTLVTVSSASTKGPSVFPLAPSSKSTSGGTAALGCLVKDYFPEPVTVSWNSGALTSGVHTFPAVLQSSGLYSLSSVVTVPSSSLGTQTYICNVNHKPSNTKVDKRVEPKSSDKTHTCPPCPAPEAAGGPSVFLFPPKPKDTLMISRTPEVTCVVVDVSHEDPEVKFNWYVDGVEVHNAKTKPREEQYNSTYRVVSVLTVLHQDWLNGKEYKCKVSNKALPAPIEKTISKAKGQPREPQVYTLPPSREEMTKNQVSLSCAVKGFYPSDIAVEWESNGQPENNYKTTPPVLDSDGSFFLVSKLTVDKSRWQQGNVFSCSVMHEALHNHYTQKSLSLSPGK
chain 2: not shown
chain 3: DIQMTQSPSSLSASVGDRVTITCSASSSVSYMNWYQQKPGKAPKRLIYDTSKLASGVPSRFSGSGSGTDFTLTISSLQPEDFATYYCQQWSSNPPTFGGGTKVEIKRTVAAPSVFIFPPSDEQLKSGTASVVCLLNNFYPREAKVQWKVDNALQSGNSQESVTEQDSKDSTYSLSSTLTLSKADYEKHKVYACEVTHQGLSSPVTKSFNRGESGGSGGDKTHTCPPCPAPEAAGGPSVFLFPPKPKDTLMISRTPEVTCVVVDVSHEDPEVKFNWYVDGVEVHNAKTKPREEQYNSTYRVVSVLTVLHQDWLNGKEYKCKVSNKALPAPIEKTISKAKGQPREPQVYTLPPSREEMTKNQVSLWCLVKGFYPSDIAVEWESNGQPENNYKTTPPVLDSDGSFFLYSKLTVDKSRWQQGNVFSCSVMHEALHNHYTQKSLSLSPGK
In the case of B3, in assay [6], the “IC50 pM, TAA-dependent cytotoxicity towards RPMI8226 cells” value was found to be 4.2 pM. Also, the “IC50 pM, TAA-dependent cytotoxicity (MM1.R target cells by the text)” value in assay [7] amounted to 3 pM.

B4: Kv6.1 (7GS) CD38/CD3 two-chain in-tandem bispecific antibody with non-cleavable GS second linker (bispecific antibody)
heavy: QVQLVESGGGLVKPGGSLRLSCAASGFTFSDDYMSWIRQAPGKGLEWVASVSNGRPTTYYADSVRGRFTISRDNAKNSLYLQMNSLRAEDTAVYYCAREGWSGEFTDWGQGTLVTVSSASTKGPSVFPLAPSSKSTSGGTAALGCLVKDYFPEPVTVSWNSGALTSGVHTFPAVLQSSGLYSLSSVVTVPSSSLGTQTYICNVNHKPSNTKVDKRVEPKSCGGSGSGSGGSSGGGSGGGGSQVQLVQSGAEVKKPGASVKVSCKASGYTFISYTMHWVRQAPGQGLEWMGYINPRSGYTHYNQKLKDKATLTADKSASTAYMELSSLRSEDTAVYYCARSAYYDYDGFAYWGQGTLVTVSSASTKGPSVFPLAPSSKSTSGGTAALGCLVKDYFPEPVTVSWNSGALTSGVHTFPAVLQSSGLYSLSSVVTVPSSSLGTQTYICNVNHKPSNTKVDKRVEPKSSDKTHTCPPCPAPEAAGGPSVFLFPPKPKDTLMISRTPEVTCVVVDVSHEDPEVKFNWYVDGVEVHNAKTKPREEQYNSTYRVVSVLTVLHQDWLNGKEYKCKVSNKALPAPIEKTISKAKGQPREPQVYTLPPSREEMTKNQVSLSCAVKGFYPSDIAVEWESNGQPENNYKTTPPVLDSDGSFFLVSKLTVDKSRWQQGNVFSCSVMHEALHNHYTQKSLSLSPGK
light: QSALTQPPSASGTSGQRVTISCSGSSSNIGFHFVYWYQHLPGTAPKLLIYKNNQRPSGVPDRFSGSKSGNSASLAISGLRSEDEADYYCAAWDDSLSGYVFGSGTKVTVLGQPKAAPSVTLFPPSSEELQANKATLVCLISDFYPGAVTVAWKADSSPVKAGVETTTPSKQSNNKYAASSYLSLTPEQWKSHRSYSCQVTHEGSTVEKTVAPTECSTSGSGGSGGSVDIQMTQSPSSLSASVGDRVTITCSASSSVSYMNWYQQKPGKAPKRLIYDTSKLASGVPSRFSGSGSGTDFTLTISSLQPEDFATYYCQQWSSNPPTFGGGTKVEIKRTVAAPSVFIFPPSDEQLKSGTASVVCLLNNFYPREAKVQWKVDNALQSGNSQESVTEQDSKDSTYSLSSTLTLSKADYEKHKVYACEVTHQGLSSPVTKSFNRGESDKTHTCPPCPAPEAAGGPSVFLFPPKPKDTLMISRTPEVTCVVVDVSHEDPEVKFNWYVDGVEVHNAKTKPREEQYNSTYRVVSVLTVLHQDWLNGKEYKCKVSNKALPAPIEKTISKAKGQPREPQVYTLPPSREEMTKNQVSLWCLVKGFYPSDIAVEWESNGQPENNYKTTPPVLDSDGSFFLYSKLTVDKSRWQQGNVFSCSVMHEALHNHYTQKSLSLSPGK
notes: also called control non-cleavable bispecific antibody having an in-tandem structure (Kv6.1)
For the molecule B4, in assay [8], the “fold reduction of binding to CD3” value is > 100 fold.

B5: Kv6.2 (7GS) CD38/CD3 two-chain non-tandem bispecific antibody with non-cleavable GS second linker (bispecific antibody)
heavy: QVQLVESGGGLVKPGGSLRLSCAASGFTFSDDYMSWIRQAPGKGLEWVASVSNGRPTTYYADSVRGRFTISRDNAKNSLYLQMNSLRAEDTAVYYCAREGWSGEFTDWGQGTLVTVSSASTKGPSVFPLAPSSKSTSGGTAALGCLVKDYFPEPVTVSWNSGALTSGVHTFPAVLQSSGLYSLSSVVTVPSSSLGTQTYICNVNHKPSNTKVDKRVEPKSSDKTHTCPPCPAPEAAGGPSVFLFPPKPKDTLMISRTPEVTCVVVDVSHEDPEVKFNWYVDGVEVHNAKTKPREEQYNSTYRVVSVLTVLHQDWLNGKEYKCKVSNKALPAPIEKTISKAKGQPREPQVYTLPPSREEMTKNQVSLSCAVKGFYPSDIAVEWESNGQPENNYKTTPPVLDSDGSFFLVSKLTVDKSRWQQGNVFSCSVMHEALHNHYTQKSLSLSPGKGSGGSSGGGSGGGGSQVQLVQSGAEVKKPGASVKVSCKASGYTFISYTMHWVRQAPGQGLEWMGYINPRSGYTHYNQKLKDKATLTADKSASTAYMELSSLRSEDTAVYYCARSAYYDYDGFAYWGQGTLVTVSSASTKGPSVFPLAPSSKSTSGGTAALGCLVKDYFPEPVTVSWNSGALTSGVHTFPAVLQSSGLYSLSSVVTVPSSSLGTQTYICNVNHKPSNTKVDKRVEPKSC
light: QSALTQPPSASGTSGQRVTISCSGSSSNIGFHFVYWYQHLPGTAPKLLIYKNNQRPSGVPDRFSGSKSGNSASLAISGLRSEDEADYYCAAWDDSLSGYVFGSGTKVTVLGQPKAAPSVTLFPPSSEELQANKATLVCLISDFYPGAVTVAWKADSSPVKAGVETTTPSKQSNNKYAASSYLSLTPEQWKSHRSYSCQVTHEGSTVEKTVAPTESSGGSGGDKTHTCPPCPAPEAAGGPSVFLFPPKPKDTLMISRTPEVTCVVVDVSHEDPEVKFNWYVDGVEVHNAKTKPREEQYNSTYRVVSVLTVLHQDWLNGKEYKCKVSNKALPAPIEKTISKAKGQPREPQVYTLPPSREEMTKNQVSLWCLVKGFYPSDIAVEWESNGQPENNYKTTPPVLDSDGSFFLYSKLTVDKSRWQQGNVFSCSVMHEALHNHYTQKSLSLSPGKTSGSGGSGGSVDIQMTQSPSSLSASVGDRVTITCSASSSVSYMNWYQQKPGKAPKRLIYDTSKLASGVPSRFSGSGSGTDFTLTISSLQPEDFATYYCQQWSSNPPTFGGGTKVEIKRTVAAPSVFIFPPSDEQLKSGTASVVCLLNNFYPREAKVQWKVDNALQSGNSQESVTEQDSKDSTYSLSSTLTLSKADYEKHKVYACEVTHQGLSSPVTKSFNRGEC
notes: also called control non-cleavable bispecific antibody having a non-tandem structure (Kv6.2)
Turning to B5, the “fold reduction of binding to CD3” value in assay [8] is > 1000 fold.
